Literature values, collected in PMC13042399.

Target: IGF2 (Homo sapiens) (UniProt P01344)
Sequence (P01344 25-91): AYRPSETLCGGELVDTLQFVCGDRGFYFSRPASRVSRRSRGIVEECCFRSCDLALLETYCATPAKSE

For IGF2R (from UniProt P11717), the Kd is given as 40 nM.
